Experimental data from article PMC10483886 (Molecular cell, 2023).

Target: T1, His-Flag-DBR1 (human, UniProt Q9UK59 1-544)
T1 sequence (looked up): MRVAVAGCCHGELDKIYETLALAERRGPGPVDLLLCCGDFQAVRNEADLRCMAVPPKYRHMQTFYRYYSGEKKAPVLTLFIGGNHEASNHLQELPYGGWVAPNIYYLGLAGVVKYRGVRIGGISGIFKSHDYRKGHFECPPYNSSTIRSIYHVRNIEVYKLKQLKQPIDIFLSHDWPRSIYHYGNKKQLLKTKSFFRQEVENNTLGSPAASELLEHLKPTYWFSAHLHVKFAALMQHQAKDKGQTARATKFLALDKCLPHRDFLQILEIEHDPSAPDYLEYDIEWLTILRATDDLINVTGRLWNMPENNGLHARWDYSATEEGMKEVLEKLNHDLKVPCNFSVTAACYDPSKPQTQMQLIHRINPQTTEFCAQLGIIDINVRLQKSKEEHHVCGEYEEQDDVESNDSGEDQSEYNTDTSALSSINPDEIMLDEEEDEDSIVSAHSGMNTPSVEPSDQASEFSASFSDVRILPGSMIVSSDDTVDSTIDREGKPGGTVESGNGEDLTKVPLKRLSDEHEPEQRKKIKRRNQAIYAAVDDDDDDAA
Assay: pull-down

B1: GST-TTDN1 (natural protein, human, UniProt Q8TAP9 1-179, looked up)
chain: MQRQNFRPPTPPYPGPGGGGWGSGSSFRGTPGGGGPRPPSPRDGYGSPHHTPPYGPRSRPYGSSHSPRHGGSFPGGRFGSPSPGGYPGSYSRSPAGSQQQFGYSPGQQQTHPQGSPRTSTPFGSGRVREKRMSNELENYFKPSMLEDPWAGLEPVSVVDISQQYSNTQTFTGKKGRYFC
B1: binds.
